Assay results from patent US20250171562A1 (ALK ABELL, published 2025).

Experiments:
recombinant human IgE = biological target: T1, recombinant human IgE (human, UniProt P01854-1 1-428); assay: IgE-FcεRIα displacement ELISA
T1 construct: made in-house (ALK); preloaded on immobilised FcεRIα in the displacement ELISA
How it was run: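 sdAbs at pM–μM were incubated 1 h on preformed complexes of 13 ng/ml recombinant human IgE with avi-tag-biotinylated human FcεRIα captured on streptavidin.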

IgE-Fc Cε3-4 = biological target: T2, IgE-Fc Cε3-4 (human, UniProt P01854-1 209-428, limits assumed); assay: ELISA, immobilised IgE-Fc Cε3-4
T2 construct: domain: Cε3-Cε4; coated at 2 µg/mL in the ELISA; also called IgE-Fc Cε3-Cε4
T2 sequence (P01854 other isoform, or with tags, fused parts or gaps limits assumed): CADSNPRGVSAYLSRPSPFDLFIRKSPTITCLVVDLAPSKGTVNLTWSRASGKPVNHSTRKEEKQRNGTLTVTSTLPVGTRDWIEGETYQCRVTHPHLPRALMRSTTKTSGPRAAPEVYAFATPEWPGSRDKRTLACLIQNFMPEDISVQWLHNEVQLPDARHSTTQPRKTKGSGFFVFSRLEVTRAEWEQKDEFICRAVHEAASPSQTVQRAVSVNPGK
Method: SdAb monomers of interest (table 1) and identified in example 2 were amplified from pNT plasmid by PCR and recloned in pET22b plasmid by SLICE cloning reaction. Thereby, a pelB signal sequence and a C-terminal his/HA tag were added to the sdAbs allowing for secretion into periplasmic space and subsequent purification and detection. SdAbs were expressed in E. coli Rosetta (DE3) cells using 2YT media. Expression was induced in early exponential phase with 0.5 mM IPTG and carried overnight at 20° C.-25° C. Purification of sdAbs from supernatant or supernatant+periplasmic extract was performed by IMAC using HisTrap excel column (Cytiva) as first step and by SEC with a Hiload 16-600 Superdex® 75 pg (Cytiva) column as second step. Size and purity of each sdAbs were evaluated on a 15% acrylamide SDS-PAGE. Then, immunoreactivity of sdAbs against immobilized IgE-Fc Cε2-4 and IgE-Fc Cε3-4 was analysed by ELISA. IgE-Fc were coated at 2 μg/mL overnight in a Nunc MaxiSorp plate (ThermoFisher). After blocking sdAbs were added at a 1:10 dilution in TBS and incubated 3h at room temperature. Detection was performed using a mouse anti-HA antibody (ThermoFisher) and an anti-mouse IgG AP conjugated (Sigma Aldrich).

biotinylated IgE Fc = biological target: T3, biotinylated IgE Fc (UniProt P01854-1 104-428, biotinylated); assay: BLI (Octet), IgE Fc on sensor, 1:1 fit
T3 construct: also called IgE Fc (made in-house ALK, Denmark)
T3 sequence (P01854 other isoform, or with tags, fused parts or gaps): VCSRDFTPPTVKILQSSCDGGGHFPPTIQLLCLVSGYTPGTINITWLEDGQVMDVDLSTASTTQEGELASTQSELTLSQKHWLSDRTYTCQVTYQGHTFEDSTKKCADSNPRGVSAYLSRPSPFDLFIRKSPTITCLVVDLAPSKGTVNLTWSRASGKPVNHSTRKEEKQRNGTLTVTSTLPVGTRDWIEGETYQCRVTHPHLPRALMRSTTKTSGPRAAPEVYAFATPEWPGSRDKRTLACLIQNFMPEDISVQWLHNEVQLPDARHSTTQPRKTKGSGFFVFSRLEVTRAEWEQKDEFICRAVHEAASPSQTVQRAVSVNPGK
Method: The biotinylated IgE Fc (made in-house ALK, Denmark) was immobilised on SAX (High precision streptavidin) sensors (FortéBIO) to max 1 nm. The association (240 s) and dissociation (600 s) were measured for the analytes in a serial dilution (from 10 nM to 0.37 nM). Data were subtracted to blank reference sensors exposed to the same serial analyte dilutions, aligned, and analysed in the Octet Data Analysis HT 11.1 Software (FortéBIO) using a 1:1 fitting model.

T1 sequence (P01854 other isoform, or with tags, fused parts or gaps): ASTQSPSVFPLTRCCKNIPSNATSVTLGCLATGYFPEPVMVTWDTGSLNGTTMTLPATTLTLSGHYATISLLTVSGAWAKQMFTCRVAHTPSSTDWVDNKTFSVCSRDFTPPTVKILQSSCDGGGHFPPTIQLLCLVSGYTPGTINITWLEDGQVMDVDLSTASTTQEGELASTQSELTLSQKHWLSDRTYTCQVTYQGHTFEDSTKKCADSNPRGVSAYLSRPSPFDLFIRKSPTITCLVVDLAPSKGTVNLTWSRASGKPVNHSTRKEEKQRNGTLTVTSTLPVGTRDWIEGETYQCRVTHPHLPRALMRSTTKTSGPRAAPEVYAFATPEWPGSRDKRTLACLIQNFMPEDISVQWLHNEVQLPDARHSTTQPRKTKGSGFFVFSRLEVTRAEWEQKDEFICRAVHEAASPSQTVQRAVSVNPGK

B1: A1B3(G4S)4 (bispecific antibody)
chain: EVQLLESGGGLVQPGGSLRLSCAASGFTFGNYDMAWVRQAPGKRPEWVSSIDTGGDITHYADSVKGRFTISRDNAKNTLYLQMNSLRPEDTAVYWCATDEEYALGPNEFDYYGQGTLVTVSGGGGSGGGGSGGGGSGGGGSDVQLQESGGGLVQAGGSLRLSCAASGFIFRLAGMSWVRQAPGKGFEWVSGITMDGSTTNYADSVKGRFTISRDNSKNRLYLQMNSLKPEDTAVYYCARGAKGGYNDPRGQGTQVTVS
EC50 (recombinant human IgE): 190 nM
Max effect (recombinant human IgE): 80%

B2: sdAb B3 (VHH)
VHH: DVQLQESGGGLVQAGGSLRLSCAASGFIFRLAGMSWVRQAPGKGFEWVSGITMDGSTTNYADSVKGRFTISRDNSKNRLYLQMNSLKPEDTAVYYCARGAKGGYNDPRGQGTQVTVS
binding result (IgE-Fc Cε3-4): no binding
Max effect (recombinant human IgE): 0%
Kd (biotinylated IgE Fc): 0.28 nM
koff (biotinylated IgE Fc): 0.00025 s⁻¹
kon (biotinylated IgE Fc): 880000 M⁻¹ s⁻¹

B3: sdAb F1 (VHH)
VHH: DVQLQESGGGLVQAGGSLKLSCAASGGSLSRYDMGWFRQAPGKEREFVARISWSGTTKYYADAVKGRFAISRDNAKNTVYLQMNSLKPEDTAVYYCAAAFYGNRGYYDVNAYTSSGQGTQVTVS
binding result (IgE-Fc Cε3-4): no binding
Max effect (recombinant human IgE): 0%

B4: A1D2(G4S)4 (bispecific antibody)
chain: EVQLLESGGGLVQPGGSLRLSCAASGFTFGNYDMAWVRQAPGKRPEWVSSIDTGGDITHYADSVKGRFTISRDNAKNTLYLQMNSLRPEDTAVYWCATDEEYALGPNEFDYYGQGTLVTVSGGGGSGGGGSGGGGSGGGGSDVQLQESGGGLVEAGGSLRLSCVASGRTFSGWSMGWFRQAPGKEREFVAAISWVGSWIGGTVYSNSVKGRFTISRDNARTTVYLQMNSLKPEDTAVYFCAAANSETPRIFASEYDYWGQGTQVTVS
EC50 (recombinant human IgE): 10 nM
Max effect (recombinant human IgE): > 95%

B5: F1A1(G4S)4 (bispecific antibody)
chain: DVQLQESGGGLVQAGGSLKLSCAASGGSLSRYDMGWFRQAPGKEREFVARISWSGTTKYYADAVKGRFAISRDNAKNTVYLQMNSLKPEDTAVYYCAAAFYGNRGYYDVNAYTSSGQGTQVTVSGGGGSGGGGSGGGGSGGGGSEVQLLESGGGLVQPGGSLRLSCAASGFTFGNYDMAWVRQAPGKRPEWVSSIDTGGDITHYADSVKGRFTISRDNAKNTLYLQMNSLRPEDTAVYWCATDEEYALGPNEFDYYGQGTLVTVS
EC50 (recombinant human IgE): 4000 nM
Max effect (recombinant human IgE): > 95%

B6: A1B2(G4S)4 (bispecific antibody)
chain: EVQLLESGGGLVQPGGSLRLSCAASGFTFGNYDMAWVRQAPGKRPEWVSSIDTGGDITHYADSVKGRFTISRDNAKNTLYLQMNSLRPEDTAVYWCATDEEYALGPNEFDYYGQGTLVTVSGGGGSGGGGSGGGGSGGGGSQVQLVESGGGLVQAGGSLRLSCAVFGSTFSNNVADWYRQAPGKQRELVARISASGATREYGDSVKGRFTISRDDAKNTMYLQMNNLKPEDTAVYRCHKIEWEDLSRKDYWGQGTQVTVS
EC50 (recombinant human IgE): 1.4 nM
Max effect (recombinant human IgE): > 95%

B7: sdAb F4 (VHH)
VHH: DVQLQESGGGLVQAGGSLRLSCAVSGLSFSSMGWFRQPPGKEREFVAAISLYSGSTYYADSVKGRFTISSDNAKSTVYLQMNSLKPEDAAVYFCAADRQRTWSTFYASRQATYNYWGQGTQVTVTS
binding result (IgE-Fc Cε3-4): no binding
Max effect (recombinant human IgE): < 20%

B8: sdAb E2 (VHH)
VHH: DVQLQESGGGLVQAGGSLRLSCAASGRTISRYAVGWFRRPPAKEREFIGINWSGGSTTYADSAEGRFIISRDNAKNTVYLQMNSLKPEDTAVYYCAVPSVLVQGGISNPSQYDYWGQGTQVTVS
binding result (IgE-Fc Cε3-4): no binding
Max effect (recombinant human IgE): 0%

B9: sdAb B2 (VHH)
VHH: QVQLVESGGGLVQAGGSLRLSCAVFGSTFSNNVADWYRQAPGKQRELVARISASGATREYGDSVKGRFTISRDDAKNTMYLQMNNLKPEDTAVYRCHKIEWEDLSRKDYWGQGTQVTVS
binding result (IgE-Fc Cε3-4): no binding
Max effect (recombinant human IgE): < 20%
Kd (biotinylated IgE Fc): 0.11 nM
koff (biotinylated IgE Fc): 7.8e-05 s⁻¹
kon (biotinylated IgE Fc): 700000 M⁻¹ s⁻¹

B10: sdAb B1 (VHH)
VHH: QVQLQESGGGLVQTGGSLRLSCAVHGRTFSNTGMGWFRQAPGNERQFVAIISPSGTSTYYADSVKGRFTISRDPAKNTVYLQMNSLKMDDTAVYYCAASYGSNWSTLRHQRRNEYDAWGQGTQVAVS
binding result (IgE-Fc Cε3-4): no binding
EC50 (recombinant human IgE): 200 nM
Max effect (recombinant human IgE): 65%
Kd (biotinylated IgE Fc): 65 nM
koff (biotinylated IgE Fc): 0.049 s⁻¹
kon (biotinylated IgE Fc): 760000 M⁻¹ s⁻¹

B11: sdAb F3 (VHH)
VHH: DVQLQESGGGLVQAGGSLKLSCAASRGSLSRWDVAWFRQAPGKERSFVTRISWSGTTSYYADAVKGRFAISRDNAKNTVYLQMNSLKPEDTAVYYCAVALYGNRGYYDVNAHSYWGQGTQVTVS
binding result (IgE-Fc Cε3-4): no binding
Max effect (recombinant human IgE): 0%

B12: B3A1(G4S)4 (bispecific antibody)
chain: DVQLQESGGGLVQAGGSLRLSCAASGFIFRLAGMSWVRQAPGKGFEWVSGITMDGSTTNYADSVKGRFTISRDNSKNRLYLQMNSLKPEDTAVYYCARGAKGGYNDPRGQGTQVTVSGGGGSGGGGSGGGGSGGGGSEVQLLESGGGLVQPGGSLRLSCAASGFTFGNYDMAWVRQAPGKRPEWVSSIDTGGDITHYADSVKGRFTISRDNAKNTLYLQMNSLRPEDTAVYWCATDEEYALGPNEFDYYGQGTLVTVS
EC50 (recombinant human IgE): 0.3 nM
Max effect (recombinant human IgE): > 95%

B13: sdAb E3 (VHH)
VHH: DVQLQESGGGLVQAGGSLRLACAASGRTLSSYVVSWFRQAPGKERKFVAAITWSGLSTTYLDSVQGRFTISRDNTKDTVYLQMNSLKPQDTAIYYCAAGPNIPSILRTRESEYAYWGQGTQVTVS
binding result (IgE-Fc Cε3-4): no binding
Max effect (recombinant human IgE): 0%

B14: sdAb F5 (VHH)
VHH: DVQLQESGGGLVQPGGSLRLSCAASGSIFSIDIMGWYRQAPGKQRELVATMPEGNYINYADSVKGRLTLSRDKGKNTVYLQLNSLKPEDTAVYYCYGFGVREGRGNVYWGQGTQVTVS
binding result (IgE-Fc Cε3-4): no binding
Max effect (recombinant human IgE): 35%

B15: sdAb D2 (VHH)
VHH: DVQLQESGGGLVEAGGSLRLSCVASGRTFSGWSMGWFRQAPGKEREFVAAISWVGSWIGGTVYSNSVKGRFTISRDNARTTVYLQMNSLKPEDTAVYFCAAANSETPRIFASEYDYWGQGTQVTVS
binding result (IgE-Fc Cε3-4): no binding
EC50 (recombinant human IgE): 10000 nM
Max effect (recombinant human IgE): 50%
Kd (biotinylated IgE Fc): 81 nM
koff (biotinylated IgE Fc): 0.02 s⁻¹
kon (biotinylated IgE Fc): 240000 M⁻¹ s⁻¹

B16: D2A1(G4S)4 (bispecific antibody)
chain: DVQLQESGGGLVEAGGSLRLSCVASGRTFSGWSMGWFRQAPGKEREFVAAISWVGSWIGGTVYSNSVKGRFTISRDNARTTVYLQMNSLKPEDTAVYFCAAANSETPRIFASEYDYWGQGTQVTVSGGGGSGGGGSGGGGSGGGGSEVQLLESGGGLVQPGGSLRLSCAASGFTFGNYDMAWVRQAPGKRPEWVSSIDTGGDITHYADSVKGRFTISRDNAKNTLYLQMNSLRPEDTAVYWCATDEEYALGPNEFDYYGQGTLVTVS
EC50 (recombinant human IgE): 8 nM
Max effect (recombinant human IgE): > 95%

B17: sdAb E1 (VHH)
VHH: DVQLQESGGGLVQAGGSLRLSCLASGRTFTTTSGYNMGWFRQAPGKEREFVAGIKWVSGSNRAYAESVKGRFTISRDNAKNTVYLQMNSLKPEDTAVYYCAAATGQSYVPIREYEYVYWGQGTQVTVS
binding result (IgE-Fc Cε3-4): no binding
Max effect (recombinant human IgE): < 20%

B18: A1A1(G4S)4 (VHH)
chain: EVQLLESGGGLVQPGGSLRLSCAASGFTFGNYDMAWVRQAPGKRPEWVSSIDTGGDITHYADSVKGRFTISRDNAKNTLYLQMNSLRPEDTAVYWCATDEEYALGPNEFDYYGQGTLVTVSGGGGSGGGGSGGGGSGGGGSEVQLLESGGGLVQPGGSLRLSCAASGFTFGNYDMAWVRQAPGKRPEWVSSIDTGGDITHYADSVKGRFTISRDNAKNTLYLQMNSLRPEDTAVYWCATDEEYALGPNEFDYYGQGTLVTVS
notes: monospecific, bivalent control of two A1 linked by (G4S)4
EC50 (recombinant human IgE): 250 nM
Max effect (recombinant human IgE): 90%

B19: sdAb D1 (VHH)
VHH: DVQLQESGGGLVQAGGSLRLSCAASGLTFSRCDMGWFRQAPGKEREFVARISANGASTHYADFVKGRFTISRDNAKNTVYLQMNYLKPEDTAVYICAAARVPVTWQLYDYWGQGTQVTVS
binding result (IgE-Fc Cε3-4): no binding
Max effect (recombinant human IgE): 0%
Kd (biotinylated IgE Fc): 3.2 nM
koff (biotinylated IgE Fc): 0.00045 s⁻¹
kon (biotinylated IgE Fc): 140000 M⁻¹ s⁻¹
